Data published in the supplement of paper PMC5998384.

Legend:
[1] = test system: HeLa Kyoto; assay: solubility change mitosis vs G1/S (difference of NP-40 vs SDS log2 ratios) (log2 ratio difference); higher = more soluble in mitosis
[2] = test system: HeLa Kyoto; assay: melting temperature (median over replicates), in situ; higher = more thermally stable
[3] = test system: HeLa Kyoto; assay: thermal stability score vs G1/S (z-score of summed log2 fold changes over temperatures); higher = more thermally stable than in G1/S
[4] = test system: HeLa Kyoto; assay: solubility in G1/S (NP-40 vs SDS abundance) (log2 ratio); higher = more soluble; settings: cell cycle stage: G1/S
[5] = cell cycle stage: early G1 (4.5 h after nocodazole release)
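Wherever melting temperature (median over replicates), in situ is given: HeLa Kyoto cells synchronized by double thymidine or nocodazole block, proteins quantified by TMT10plex mass spectrometry, three independent biological replicates.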
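Wherever solubility change mitosis vs G1/S (difference of NP-40 vs SDS log2 ratios) is given: synchronized HeLa Kyoto cells (double thymidine block for G1/S, nocodazole release for mitosis), protein amounts in NP-40 versus SDS lysates quantified by mass spectrometry, three biological replicates.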
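Wherever solubility in G1/S (NP-40 vs SDS abundance) is given: HeLa Kyoto cells arrested at G1/S by double thymidine block, proteins quantified by TMT10plex mass spectrometry in mild NP-40 versus SDS extracts, three biological replicates.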
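Wherever thermal stability score vs G1/S (z-score of summed log2 fold changes over temperatures) is given: synchronized HeLa Kyoto cells, proteins quantified by TMT10plex mass spectrometry, three biological replicates, mitosis taken 0.5 h after nocodazole release, G1/S directly after double thymidine block.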

Sequence	solubility change mitosis (log2) [1]	melting temperature ([2]; cell cycle stage: G1/S)	melting temperature ([2]; cell cycle stage: mitosis)	thermal stability score [3, 5]	thermal stability score ([3]; cell cycle stage: mitosis)	solubility in G1/S (log2) [4]
MTAEDSTAAMSSDSAAGSSAKVPEGVAGAPNEAALLALMERTGYSMVQENGQRKYGGPPPGWEGPHPQRGCEVFVGKIPRDVYEDELVPVFEAVGRIYELRLMMDFDGKNRGYAFVMYCHKHEAKRAVRELNNYEIRPGRLLGVCCSVDNCRLFIGGIPKMKKREEILEEIAKVTEGVLDVIVYASAADKMKNRGFAFVEYESHRAAAMARRKLMPGRIQLWGHQIAVDWAEPEIDVDEDVMETVKILYVRNLMIETTEDTIKKSFGQFNPGCVERVKKIRDYAFVHFTSREDAVHAMNNLNGTELEGSCLEVTLAKPVDKEQYSRYQKAARGGGAAEAAQQPSYVYSCDPYTLAYYGYPYNALIGPNRDYFVKAGSIRGRGRGAAGNRAPGPRGSYLGGYSAGRGIYSRYHEGKGKQQEKGYELVPNLEIPTVNPVAIKPGTVAIPAIGAQYSMFPAAPAPKMIEDGKIHTVEHMISPIAVQPDPASAAAAAAAAAAAAAAVIPTVSTPPPFQGRPITPVYTVAPNVQRIPTAGIYGASYVPFAAPATATIATLQKNAAAAAAMYGGYAGYIPQAFPAAAIQVPIPDVYQTY [RBM47]	-0.0191	48.2 °C	47.4 °C	0.77	1.83	-0.0256
MTAEEMKATESGAQSAPLPMEGVDISPKQDEGVLKVIKREGTGTEMPMIGDRVFVHYTGWLLDGTKFDSSLDRKDKFSFDLGKGEVIKAWDIAIATMKVGEVCHITCKPEYAYGSAGSPPKIPPNATLVFEVELFEFKGEDLTEEEDGGIIRRIQTRGEGYAKPNEGAIVEVALEGYYKDKLFDQRELRFEIGEGENLDLPYGLERAIQRMEKGEHSIVYLKPSYAFGSVGKEKFQIPPNAELKYELHLKSFEKAKESWEMNSEEKLEQSTIVKERGTVYFKEGKYKQALLQYKKIVSWLEYESSFSNEEAQKAQALRLASHLNLAMCHLKLQAFSAAIESCNKALELDSNNEKGLFRRGEAHLAVNDFELARADFQKVLQLYPNNKAAKTQLAVCQQRIRRQLAREKKLYANMFERLAEEENKAKAEASSGDHPTDTEMKEEQKSNTAGSQSQVETEA [FKBP4]	-0.129	50 °C	50.1 °C	1.07	1.03	0.197
MTANRDAALSSHRHPGCAQRPRTPTFASSSQRRSAFGFDDGNFPGLGERSHAPGSRLGARRRAKTARGLRGHRQRGAGAGLSRPGSARAPSPPRPGGPENPGGVLSVELPGLLAQLARSFALLLPVYALGYLGLSFSWVLLALALLAWCRRSRGLKALRLCRALALLEDEERVVRLGVRACDLPAWVHFPDTERAEWLNKTVKHMWPFICQFIEKLFRETIEPAVRGANTHLSTFSFTKVDVGQQPLRINGVKVYTENVDKRQIILDLQISFVGNCEIDLEIKRYFCRAGVKSIQIHGTMRVILEPLIGDMPLVGALSIFFLRKPLLEINWTGLTNLLDVPGLNGLSDTIILDIISNYLVLPNRITVPLVSEVQIAQLRFPVPKGVLRIHFIEAQDLQGKDTYLKGLVKGKSDPYGIIRVGNQIFQSRVIKENLSPKWNEVYEALVYEHPGQELEIELFDEDPDKDDFLGSLMIDLIEVEKERLLDEWFTLDEVPKGKLHLRLEWLTLMPNASNLDKVLTDIKADKDQANDGLSSALLILYLDSARNLPSGKKISSNPNPVVQMSVGHKAQESKIRYKTNEPVWEENFTFFIHNPKRQDLEVEVRDEQHQCSLGNLKVPLSQLLTSEDMTVSQRFQLSNSGPNSTIKMKIALRVLHLEKRERPPDHQHSAQVKRPSVSKEGRKTSIKSHMSGSPGPGGSNTAPSTPVIGGSDKPGMEEKAQPPEAGPQGLHDLGRSSSSLLASPGHISVKEPTPSIASDISLPIATQELRQRLRQLENGTTLGQSPLGQIQLTIRHSSQRNKLIVVVHACRNLIAFSEDGSDPYVRMYLLPDKRRSGRRKTHVSKKTLNPVFDQSFDFSVSLPEVQRRTLDVAVKNSGGFLSKDKGLLGKVLVALASEELAKGWTQWYDLTEDGTRPQAMT [ESYT2]	-0.0587	51.2 °C	51.5 °C	0.682	0.876	-0.095
MTAVHAGNINFKWDPKSLEIRTLAVERLLEPLVTQVTTLVNTNSKGPSNKKRGRSKKAHVLAASVEQATENFLEKGDKIAKESQFLKEELVAAVEDVRKQGDLMKAAAGEFADDPCSSVKRGNMVRAARALLSAVTRLLILADMADVYKLLVQLKVVEDGILKLRNAGNEQDLGIQYKALKPEVDKLNIMAAKRQQELKDVGHRDQMAAARGILQKNVPILYTASQACLQHPDVAAYKANRDLIYKQLQQAVTGISNAAQATASDDASQHQGGGGGELAYALNNFDKQIIVDPLSFSEERFRPSLEERLESIISGAALMADSSCTRDDRRERIVAECNAVRQALQDLLSEYMGNAGRKERSDALNSAIDKMTKKTRDLRRQLRKAVMDHVSDSFLETNVPLLVLIEAAKNGNEKEVKEYAQVFREHANKLIEVANLACSISNNEEGVKLVRMSASQLEALCPQVINAALALAAKPQSKLAQENMDLFKEQWEKQVRVLTDAVDDITSIDDFLAVSENHILEDVNKCVIALQEKDVDGLDRTAGAIRGRAARVIHVVTSEMDNYEPGVYTEKVLEATKLLSNTVMPRFTEQVEAAVEALSSDPAQPMDENEFIDASRLVYDGIRDIRKAVLMIRTPEELDDSDFETEDFDVRSRTSVQTEDDQLIAGQSARAIMAQLPQEQKAKIAEQVASFQEEKSKLDAEVSKWDDSGNDIIVLAKQMCMIMMEMTDFTRGKGPLKNTSDVISAAKKIAEAGSRMDKLGRTIADHCPDSACKQDLLAYLQRIALYCHQLNICSKVKAEVQNLGGELVVSGVDSAMSLIQAAKNLMNAVVQTVKASYVASTKYQKSQGMASLNLPAVSWKMKAPEKKPLVKREKQDETQTKIKRASQKKHVNPVQALSEFKAMDSI [CTNNA1]	-0.0404	52.6 °C	52.2 °C	-0.182	-0.645	0.402
MTDDKDVLRDVWFGRIPTCFTLYQDEITEREAEPYYLLLPRVSYLTLVTDKVKKHFQKVMRQEDISEIWFEYEGTPLKWHYPIGLLFDLLASSSALPWNITVHFKSFPEKDLLHCPSKDAIEAHFMSCMKEADALKHKSQVINEMQKKDHKQLWMGLQNDRFDQFWAINRKLMEYPAEENGFRYIPFRIYQTTTERPFIQKLFRPVAADGQLHTLGDLLKEVCPSAIDPEDGEKKNQVMIHGIEPMLETPLQWLSEHLSYPDNFLHISIIPQPTD [ATG5]	0.0407	54.2 °C	53.6 °C	-0.587	0.0242	0.406
MTDGDYDYLIKLLALGDSGVGKTTFLYRYTDNKFNPKFITTVGIDFREKRVVYNAQGPNGSSGKAFKVHLQLWDTAGQERFRSLTTAFFRDAMGFLLMFDLTSQQSFLNVRNWMSQLQANAYCENPDIVLIGNKADLPDQREVNERQARELADKYGIPYFETSAATGQNVEKAVETLLDLIMKRMEQCVEKTQIPDTVNGGNSGNLDGEKPPEKKCIC [RAB27B]	-0.0223	55.7 °C	59.9 °C	-1.38	-2.39	0.00344
MTDSKYFTTTKKGEIFELKAELNSDKKEKKKEAVKKVIASMTVGKDVSALFPDVVNCMQTDNLELKKLVYLYLMNYAKSQPDMAIMAVNTFVKDCEDPNPLIRALAVRTMGCIRVDKITEYLCEPLRKCLKDEDPYVRKTAAVCVAKLHDINAQLVEDQGFLDTLKDLISDSNPMVVANAVAALSEIAESHPSSNLLDLNPQSINKLLTALNECTEWGQIFILDCLANYMPKDDREAQSICERVTPRLSHANSAVVLSAVKVLMKFMEMLSKDLDYYGTLLKKLAPPLVTLLSAEPELQYVALRNINLIVQKRPEILKHEMKVFFVKYNDPIYVKLEKLDIMIRLASQANIAQVLAELKEYATEVDVDFVRKAVRAIGRCAIKVEQSAERCVSTLLDLIQTKVNYVVQEAIVVIKDIFRKYPNKYESVIATLCENLDSLDEPEARAAMIWIVGEYAERIDNADELLESFLEGFHDESTQVQLQLLTAIVKLFLKKPTETQELVQQVLSLATQDSDNPDLRDRGYIYWRLLSTDPVAAKEVVLAEKPLISEETDLIEPTLLDELICYIGTLASVYHKPPSAFVEGGRGVVHKSLPPRTASSESAESPETAPTGAPPGEQPDVIPAQGDLLGDLLNLDLGPPVSGPPLATSSVQMGAVDLLGGGLDSLMGDEPEGIGGTNFVAPPTAAVPANLGAPIGSGLSDLFDLTSGVGTLSGSYVAPKAVWLPAMKAKGLEISGTFTRQVGSISMDLQLTNKALQVMTDFAIQFNRNSFGLAPAAPLQVHAPLSPNQTVEISLPLSTVGSVMKMEPLNNLQVAVKNNIDVFYFSTLYPLHILFVEDGKMDRQMFLATWKDIPNENEAQFQIRDCPLNAEAASSKLQSSNIFTVAKRNVEGQDMLYQSLKLTNGIWVLAELRIQPGNPSCTDLELSLKCRAPEVSQHVYQAYETILKN [AP1B1]	-0.225	51.7 °C	51.1 °C	-0.616	0.595	0.297
MTDYGEEQRNELEALESIYPDSFTVLSENPPSFTITVTSEAGENDETVQTTLKFTYSEKYPDEAPLYEIFSQENLEDNDVSDILKLLALQAEENLGMVMIFTLVTAVQEKLNEIVDQIKTRREEEKKQKEKEAEEAEKQLFHGTPVTIENFLNWKAKFDAELLEIKKKRMKEEEQAGKNKLSGKQLFETDHNLDTSDIQFLEDAGNNVEVDESLFQEMDDLELEDDEDDPDYNPADPESDSAD [RWDD1]	0.0192	52.7 °C	54 °C	0.855	0.947	0.348
MTELETAMGMIIDVFSRYSGSEGSTQTLTKGELKVLMEKELPGFLQSGKDKDAVDKLLKDLDANGDAQVDFSEFIVFVAAITSACHKYFEKAGLK [S100P]	0.32	54.1 °C	51 °C	-0.94	-5.53	-0.525
MTELRQRVAHEPVAPPEDKESESEAKVDGETASDSESRAESAPLPVSADDTPEVLNRALSNLSSRWKNWWVRGILTLAMIAFFFIIIYLGPMVLMIIVMCVQIKCFHEIITIGYNVYHSYDLPWFRTLSWYFLLCVNYFFYGETVTDYFFTLVQREEPLRILSKYHRFISFTLYLIGFCMFVLSLVKKHYRLQFYMFGWTHVTLLIVVTQSHLVIHNLFEGMIWFIVPISCVICNDIMAYMFGFFFGRTPLIKLSPKKTWEGFIGGFFATVVFGLLLSYVMSGYRCFVCPVEYNNDTNSFTVDCEPSDLFRLQEYNIPGVIQSVIGWKTVRMYPFQIHSIALSTFASLIGPFGGFFASGFKRAFKIKDFANTIPGHGGIMDRFDCQYLMATFVNVYIASFIRGPNPSKLIQQFLTLRPDQQLHIFNTLRSHLIDKGMLTSTTEDE [CDS2]	-0.168	57.3 °C	56 °C	-3.65	-6.01	-0.102
MTGRAMDPLPAAAVGAAAEAEADEEADPPASDLPTPQAIEPQAIVQQVPAPSRMQMPQGNPLLLSHTLQELLARDTVQVELIPEKKGLFLKHVEYEVSSQRFKSSVYRRYNDFVVFQEMLLHKFPYRMVPALPPKRMLGADREFIEARRRALKRFVNLVARHPLFSEDVVLKLFLSFSGSDVQNKLKESAQCVGDEFLNCKLATRAKDFLPADIQAQFAISRELIRNIYNSFHKLRDRAERIASRAIDNAADLLIFGKELSAIGSDTTPLPSWAALNSSTWGSLKQALKGLSVEFALLADKAAQQGKQEENDVVEKLNLFLDLLQSYKDLCERHEKGVLHKHQRALHKYSLMKRQMMSATAQNREPESVEQLESRIVEQENAIQTMELRNYFSLYCLHQETQLIHVYLPLTSHILRAFVNSQIQGHKEMSKVWNDLRPKLSCLFAGPHSTLTPPCSPPEDGLCPH [SNX8]	-0.153	54 °C	55.7 °C	-2.07	-2.85	0.249
